Legend:
[1] = molecular target: mouse PVRIG on cells (mouse); assay: FACS titration, D10.G4.1 cells
[2] = molecular target: mouse PVRIG on cells (mouse); assay: FACS, HEK293 mPVRIG over-expressing vs empty vector cells, 10 ug/ml
[3] = molecular target: mouse PVRIG on cells (mouse); assay: FACS titration, HEK293 mPVRIG over-expressing cells
[4] = molecular target: mouse PVRIG on cells (mouse); assay: FACS, D10.G4.1 cells vs isotype
[5] = molecular target: mouse PVRIG on cells (mouse); assay: FACS, NK cells, 10 ug/ml vs isotype
[6] = molecular target: mouse PVRIG-Fc fusion protein (mouse); assay: blocking of mPVRIG-Fc (029-Fc) binding to mPVRL2 over-expressing cells

B1: AB-407 (antibody, V domains shown)
VH: QVQLQQSGAELAKPGSSVMISCKASGYTFTNYAVHWIKQTTGQALEWTGYIAPGSGVTKYNEKFKGKATLTVDKSSTTAYMQLSSLTPVDTAVYYCASGTTRFAYWGQGTLVTVSS
VL: DIVLTQSPALAVSLGQRATISCRASQSVSLSSYNLMQWYQQKPGQEPKILIYDASNLPSGIPARFSGSGSGTDFTLTIDPVQADDIATYYCQQSKDDPLTFGSGTKLEIK
[1]
  Kd: 1.32 nM
[2]
  MFIr (HEK OX/EV): 50
[3]
  Kd: 0.334 nM
[4]
  MFIr on D10.G4.1 (Ab/Iso): 8
[5]
  MFIr on NK cells (Ab/Iso): 2.8
[6]
  % R-L blocking: 95%
  IC50: 3.99 nM
